Reference: the nanobody polyreactivity screen of Harvey et al. (2022)

Test: yeast display, Sf9 membrane polyspecificity reagent, FACS + sequencing; frameworks hold sequencing errors
Outline: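 Synthetic nanobody libraries on Saccharomyces cerevisiae BJ5465 were galactose-induced for 36–48 hours, stained 1 hour at 4 °C with 10% biotinylated, detergent-solubilized Sf9 membrane reagent and enriched on streptavidin microbeads. FACS then separated cells into low and high (top ~1%) gates by anti-HA (expression) and streptavidin (reagent binding) fluorescence. Genes were colony-PCR amplified, MiSeq 2 × 250 sequenced and CDR-length filtered. A clone's polyreactivity label is that of its gate of origin.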

Sequence | polyreactivity (PSR sort gate)
QVQLVESGGGLVQAGGSLRLSCAASGFTFYLYAMGWYRQAPGKERELVAAINSGSSTYYADSVKGRFTISRDNAKNTVYLQMNSLKPEDTAVYYCATDTDRTMDYWGQGTQVTVSS | low polyreactivity
QVQLVESGGGLVQAGGSLRLSCADSGYIFEVYAMGWYRPAPGKERELVAAIDYSDGTTYYADSVKGRFTISRDNAKNTVYLQMNSLKPEDTAVYYCAADFPGQHYDYWGQGTQVTVSS | low polyreactivity
QVQLVESGGGLFQAGGSLRLSCAASGRTFYPNAMGWYRQAPGKERELVAAISWSVGTTHYADSVKGRFTISRDNAKNSVYLQMLSLKPEDTAVYYCNARWYYGVYDYWGQGTQVTVSS | low polyreactivity
QVQLVESGGGLVQAGGSLRLSCAASGRTFRTYVMGWYRQAPGKERELVAAITGSGGSTYYADSVKGRFTISRDNAKNTVYLQMNSLKPEDTAVYYCAADYRWDYYWYDYAEYDYWGQGTQVTVSS | low polyreactivity
QVQLVESGGGLVQAGGSLRLSCAASGGTLVPNAMGWYRPAPGKERELVAGISGSGGSTYYADSVKGRFTISRDNAKNTVYLQMNSLKPEDTAVYYCNADRYVPYYEPEMDYWGQGTQVTVSS | low polyreactivity
QVQLVESGGGLVQAGGSLRLSCAASGRIFQYYVMGWYRQAPGKERELVAAITSGGGTKYADSVKGRFTISRDNAKNTVYLQMIRLKPEDTAVYYCAAAWFDQYSRYDYWGQCTQVTVSS | low polyreactivity
QVQLVESGGGLVQAGGSLRLSCAASGITFSFYAMGWYRQAPGKERELVAGLTRSGGDTYYADSVKGRFTISRDNAKNTVYLQMNSLKPEDTAVYYCAAAWFFYRRQYTFFAGRMDYWGQGTQVTVSS | high polyreactivity
QVQLVESGGGLVQAGGSLRLSCAASGFTFQPYAMGWYRQAPGKERELVAAINWSSGRTYYADSVKGRFTISRDNAKNTVYLEMNCLKPEDTAVYYCNTRSTLGYYWGQGTQVTVSS | high polyreactivity
QVQLVESGGGLVQAGCSLRLSCAASGFTFPIYAMGWYRQAPGKEREFVAAITASGDNTYYADSVKGRFTISRDNAKNTVYLQINSLKPEDTAVYYCAADWFVDWWEYDYWGQGTQVTVSS | low polyreactivity
QVQLVESGGGLVQAGGSLLLSCSASGRTFPVNAMGWYRKAHGKEREFVAVISSTGTTYYADSVKGRFTISRDNAKNTVYLQMNSLQPVDTAVYYCARRSNRRAYGNRVGVRRTVDYWGQGTQVTVSS | low polyreactivity
QVQLVESGGGLVQAGGSLRLICAASGYIFAYNTMGWYRQAPGKERELVAAISRSGGSTYYADSVKGRFTISRDNAKNTVYLQMNSLKPEDTAVYSCAARYAPLDFRFDYWGQGTQVTVSS | high polyreactivity
QVQLVESGGGLVQAGGSLRLSWAASGSTFAYNDMGWYRQAPGKERELVASITSGGSTNYADSVKGRFTISRDNAKNTVYLQMNSLKPEDTAVYYCAARVRYRFDYWGQGTQVTVSS | low polyreactivity
QVQLVESGGGLVQAGGSLRLSCAASGGIFYFYAMGWYRQAPGKERELVAVITWSGGRTRYADSVKGRFTISRDNAKNTVYLQMNSLKPEDTAVYYCATYGVNPPGVEEYNYWGQGTQVTVSS | high polyreactivity
QVQLVESGGGLVQAGGSLRLSCAASGRIFRWYAMGWYRQAPGKERELVATISSTGGSTYYADSVKGRFTISRDNAKNTDYLQMNSLKPEDTAVYDCNAVVYGIFLYAWYDYWGQGTQVTVSS | low polyreactivity
QVQHVESGGGLVQAGGSLRLSCAASGSTFSYYAMGWSRQAPGKERELVAAISGSGASTYYADSVKGRFTISRDNAKNTVYLQMNSLKPEDTAVYYCAKYYVREHYDYWGQGTQVTVSS | low polyreactivity
QVQLVESGGGLVQAGGSLRFSCAASGSILYGYAIGWYRQAPGQETELVAAIRLTGGSTYYADSVKGRFTISRDNAKNTVYLQMNSLKPEDTAVYYCAAEYNLRNYWGDYWGQGTLVTVSS | low polyreactivity
QVQLVESGGGLVQAGGSLRLSCAASGFIFSWYAMGWSRQAPGKERELVAAIDQSGDSTYYADSVKGRFTISRDNAKNTVYLQMNSLKPEDTAVYYCAAQSYDYWYDYDYWGQGTQVTVSS | high polyreactivity
QVQLVESGGGLVQAGGSLRLSCAASGYIIGRYVMGWYRQAPGNERELVAAITASGGSTNYADSVKGRFTISRDNAKNTVYLQMNSLKPEDTAVYYCAADYSWYYFDFEYWGQGTQVTVSS | high polyreactivity
QVQLVESGGGLVQAGGSLRLSCAPSGSTFAYYAMGWYRQAPGKEREFVAAISTRGGSTYYADSVKGRFTISRDNAKNTVYFQMNSLKPEDTAVYYCAAGYFIYSWRIRFDYLGQGTQVTVSS | high polyreactivity
QVQLVESGGGLVQAGGSLRLSCAASGRTFSGNAMGWYRQAPGKEREMVAAITGRGGTTYYADSVKGRFTISRDNAKKTVFLQMNSLKPEDTAVYYCAADTKLSYQWFDYWGQGTQVTVSS | high polyreactivity
QVQLVESGGGLVQAGGSLRLSCAASGRTFFKYAMGWYRQAPGKERELVAAITGRGGSTYADSVKGRFTISRDNAKNTVYLQMNCLKPEDTAVYYCAKVFQRGAQYYYYKYDYWGQGTQVTVSS | high polyreactivity
QVQLVESGGGLVQSGGSLRLSCAASGRIFHYNAMGWYRQAPGKERELVAVITTIGGDTYYADSVKGRFTISRDNAKNTVYLQMNSLKPEDTAVYYCARDRYDNPYDQDLDYWGQGTQVTVSS | low polyreactivity

Sequence | polyreactivity (PSR sort gate)
QVQLVESGGGLVQARGSLRLSWAASGIIFALYAMGWSRQAPGKERELVAAISSDGITKYADSVKGRFTISRDNAKNPDYLQMNSLKPEDTAVYYCAADGYPGDYDYWGQGTQVTVSS | low polyreactivity
QVQLVESGGGLDQAGGSLRLSCAASGSIFVRNAMGWYRQAPGKERELVASISRRGGSTYYADSVKGRFTISRDNAKNTVYLQMNSLKPEDTAVYYCAAVVRRAPEFDYWGQGTQVTVSS | high polyreactivity
QVQLVESGGGLVQAGGSLRLSCAASGSIFSYNAMGWYRQAPGKERELVAVITRGGSTYYADSVKGRFTISRDNAKNTVYLQMNSLKPEDTAVYYCAAGAHRRGYDYWGQGTQVTVSS | high polyreactivity
QVQLVESGGGLVQAGGSLRLSCAASGGTFAYYAMGWSRQAPGKERELVAAISSGGSTNYADSVKGRFTISRDNAKNTVNLQMNSLKPEDTAGYFCAADYYGPFYGYTYDYWGQGTQVTVSS | low polyreactivity
QVQLVESGGRLVQAGGSLRLRCAASGSIFGGYTMGRSRQAPGKERELVAAISRRGGNTYYADSVKGRFTISRDNAKNTVYLQMNSLKPEDTAVYYGAVRWPSARIPVKLDYWGQGTQVSVSS | high polyreactivity
QVQLVESGGGVVQAGGSLRLSCAASGSIFLYIYAKGWYRHAPGKERELVATINWDGGSTYYADSVKGRFTISRDNAKNTVYLQMNSLKPEDTAVYYCAADWYYSYYFYRFDYWGQGTQVTVSS | low polyreactivity
QVQLVESGGGLVQAGGSLRLSCAASGFIFVVYAMGWYRQAPGKERELVATISSGGGTYYADSVKGRFTISRDNAKNTVYLQMNSLKPEDTAVYYCAARRRRLYHFGGNNYWGQGTQVTVSS | high polyreactivity
QVQLVESGGRLVQAGGSLRLSCAASRRIFTFYAMGWSRPAPGKERELVAAITGRGGSTYYADSVKGRFTISRDNAKNTVYLQMNSLKPEDTAVYYCAKRTSYRSHRYYYWGQGTQVTVSS | high polyreactivity
QVQLVESGGGLVQAGGSLRLSCAASGFIFPKNAMGWYRQAPGKERELVAAISKRGGSTYYADSVKGRFTISRDNAKNTVYLQMNSLKPEDTAVYYCADGYRTRRGLGYYYWGQGTQVTVSS | high polyreactivity
QVQLVESGGGLVQAGGSLRLSCAASGSTFRGYVMGWYRQAPGKERELVAAISRSGTSTYYADSVKGRFTISRDNAKNTVYLQMNSLKPEDTAVYYCAAQLYGHGEDYWGQGTQVTVSS | high polyreactivity
QVQLVESGGGLVQAGGSLRLSCAASGSIFSDNAMGWYRQAPGKERELVAGISSGGGTNYADSVKGRFTISRDNAKNTVYLQMNSLKPEDTGVYDCNADQRDGLELDYWGQGTQVTVSS | low polyreactivity
QVQLVESGGGLVQAGGSLRLSCAASGRTSFNYTMGWYRQAPGKERELVAAITSGGDTYYADSVKGRFTISRDNAKNTVYLQMNSLKPEDTAVYYCNADPDFPSKFDDPYSYDYWGQGTQVNVSS | low polyreactivity
QVQLVESGGGLVQAGGSLRLSCAASGSIFGYYTMGWYRQAPGKERELVARISSSGARTYYADSVKGRFTISRDNAKNTVYLQMNSLKPEDTAVYYCNAQFGYRTIYYISQYYEYGYWGQGTQVTVSS | high polyreactivity
QVQLVESGGGLVQAGGSLRLSCAASGFIFDNYAMGWYRQAPGKERELVAAISRSGGSTYYADSVKGRFTISRDNAKNTVYLQMNSLKPEDTAVYYCAARGKFGIVRYDYWGQGTQVTVSS | high polyreactivity
QVQLVESGGGLVQAGGSLRLSCAASGSTFDYYTMGWYRQAPGKERELVAAISYSGSRTYYADSVKGRFTISRDNAKNTVYLQMNSLKPEDTAVYYCAAVYRAKYGYWGQGTQVTVSS | high polyreactivity
QVQLVESGGGLVQAGGSLLLSCAASGRTFILNAMGWYSQAPGKERELVAAISWSGGSTYYADSVKGRFTISRDNAKNTVYLQMNSLKPEDTAVYYCAAETYAYLFHTYDYWGQGTQVTVSS | low polyreactivity
QVHLGESGGGLVQAGGSLRLSCAASGSIFGYYAMGWYRQAPGKERELVAAITFRDGSTYYADSVKGRFTISRDNAKNTVYLQMNSLKPEDTAVYYCAARVTYSRGYRGGSRTKYDYWGQGTQVTVSS | low polyreactivity
QVQLVESGGGVVQAGGSLRLSCAASGSTLSYYAMGLYIQAPGTERELVAAITSGVSTNYADSVKGRFTISRDNAKNTVYFQMNSLKPEDTAVYYCAKAYGGYHDDYDYWGQVTQVTVSS | low polyreactivity
QVQLLESGGGLVQAGGSLRLSCAASGRTFTYYAMGWYRQAPGKERELVASISTTGRTYYADSVKGRFTISRDNAKNTVYLQMNSLKPDDTAVYYCATRSRYYYDYWGQGTQVTVSS | high polyreactivity
QVQLVESGGGLVQAGGSLRLSCADSGFIFATNAMGWYRQAPGKERDFVAAITSGGSTYYADSVKGRFTISRDNAKNTVYLQMNSLKPEDTAVYYCNARTYSRVTRQTYRYRPYDYWGQGTQVSVSS | high polyreactivity
QVHLVESGGGLVQAGGSLRLSCAASGFTFRRYAMGWYRQAPGKERELVAAISYGGGRTYYADSVKGRFTISRDNAKNTVYLQMNSLKPEDTAVYYCAADVQSRYVGEGDYWGQGTQVTVSS | high polyreactivity
